Data on one molecule can be found in patent US20260201046A1 (BIO RAD LABORATORIES, published 2026).

This experiment has as its target T1, recombinant mouse sIL-6Ra (20-357) (mouse, UniProt P22272 20-357).
T1 construct: range 20-357; The CD33 part of the plasmid name is not explained; also called recombinant sIL-6Ra; recombinant soluble IL-6Ra
T1 sequence: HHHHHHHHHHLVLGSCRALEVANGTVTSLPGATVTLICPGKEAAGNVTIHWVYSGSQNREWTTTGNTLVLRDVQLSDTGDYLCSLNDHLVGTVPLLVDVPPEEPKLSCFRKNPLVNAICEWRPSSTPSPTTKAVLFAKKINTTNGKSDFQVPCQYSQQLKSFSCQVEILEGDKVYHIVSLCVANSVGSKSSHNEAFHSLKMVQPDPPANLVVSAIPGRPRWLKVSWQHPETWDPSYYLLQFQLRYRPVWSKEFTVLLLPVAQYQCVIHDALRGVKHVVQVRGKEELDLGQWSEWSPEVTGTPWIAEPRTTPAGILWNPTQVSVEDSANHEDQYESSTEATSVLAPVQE
The experiment is described as follows: SPR (Biacore), sIL-6Ra (20-357) amine-coupled to CM5 chip, antibody as analyte, 1:1 Langmuir fit. As to the method:
The antigen-antibody affinity of four antibodies (rAb #22, rAb #52, rAb #62, a rat mAb RB01) were determined by an analysis service employing a surface plasmon resonance technology (Beijing Xtalbio Ltd. Co). It started with a directly immobilization of recombinant mouse sIL-6Ra (20-357) on a CM5 S sensor chip using Biacore® S200 machine. Approximately 27.8 resonance units (RU) of the sIL-6Ra (20-357) were immobilized at 25° C. with an amine coupling kit following the standard amine coupling procedure. The remaining active sites on the sensor chip were blocked with 1 M ethanolamine-HCl solution, pH 8.5 at a flow rate of 10 μL/min for 7 min, to finally reach 27.8 RU. The flow cells were washed with the injection of HBS-EP running buffer at 30 μL/min. For each antibody, a 2-fold serial dilution (0, 0.39 nM-200 nM) was injected at 15° C. to a channel with a flow rate of 30 μL/min for 120s and dissociation was followed for 720s. The curves were locally fitted with Biacore®8K analysis software (BIAevaluation) using a 1:1 Langmuir binding model.
In general terms: Surface plasmon resonance follows binding to a sensor surface in real time, without labels.

B1: rAb #52 (antibody, V domains shown)
VH: QSLEESGGDLVKPGASLTLACTASGFSFSSGYYMCWVRQAPGKGLEWIGCIYTGSDTTYYASWAKGRFTISETSSTAATLQMTSLTAADTATYFCARDLGSRGNLWGPGTLVTVSS
VL: DIVMTQTPSSVSAAVGDTVTINCQASENIYSFLTWYQQKPGQRPKLLIYRASTLASGVPSRFKGSGSGTDFTLTISDLECADAATYYCQRNAYSSWAFGGGTEVVVK
notes: also called Antibody 52; recombinant rabbit monoclonal antibody from fusion clone #52
Broadly, the Kd is the equilibrium constant for the complex coming apart. Regarding B1, the Kd turned out to be 9.43 pM.
